The nature of data set [1]: Catechol oxidase activity assay: initial rate of 3-methoxycatechol oxidation at 400 nm (pH, copper and temperature optima). Format: biochemical. The procedure: PPO activity was determined by measuring the initial rate of 3-methoxycatechol oxidation at 400 nm (extinction coefficient used: ε 1200 M^−1cm^−1). One unit of activity is defined as the amount of PPO activity that oxidizes 1 μmol of 3-methoxycatechol to quinone per minute. Substrate was used at a concentration of 4 mM.
The pH optima were determined by measuring the initial rate of 3-methoxycatechol oxidation with varying pHs, at room temperature and using a CuSO4 concentration of 10 μM. The pH was varied in the range of pH3-9 using Carmody buffers. Enzyme loading was applied resulting in A400 absorbance values in the range of 0.1-1. Protein concentration was determined using the BCA method.
Optimal copper concentrations for the PPOs were determined at the optimal pH by varying the concentration of CuSO4 in the range of 1-1000 μM. In these experiments the pH was controlled using 50 mM Bis-Tris buffer pH 7.0.
Temperature optima were determined by measuring A400 absorbance after 1 h incubation at temperatures in the range of 20 to 70° C. In these experiments the pH was controlled using 50 mM Bis-Tris buffer pH 7.0. Copper concentrations of (20 or 50 μM) were used to prevent chemical oxidation as background activity at higher copper concentrations.

Data set [2] can be described thus: Conversion of syringic acid, sinapic acid and syringol by crude PPOs, absorbance at 400 nm. It is filed as biochemical. The settings on record: 4 mM substrate, crude PPO 8.2 μg/mL, pH 6.0 or 7.0, 50 μM CuSO4, room temperature, 2, 22 and 118 h. How it is done: Syringic acid, sinapic acid and syringol (4 mM) were incubated with crude PPO2, 4, 6 and 7 from Example 5 in 100 mM BisTris buffer pH 6.0 or 7.0 with 50 μM CuSO4. Crude PPOs were dosed on target protein with a final concentration of 8.2 μg/mL. Substrate blanks prepared without the addition of enzyme and enzyme blanks without the addition of substrate were included. Incubations were performed in microtiterplates with a total reaction volume of 150 μL at room temperature for approximately 120 h. After 2, 22 and 118 h absorbance at 400 nm was measured.

B1: PPO4: Myceliophthora thermophila C1 polyphenoloxidase with demethylating activity, mature form SEQ ID NO: 37 (protein, listed as Myceliophthora thermophila)
chain: DAVLDLQEKGRPAIDAQLAKSTTCTKEKLQVRREWGDISAEEKKAYIAAMLCIMEKPSRLDPNQFPGAKSRYDDFVVVHMNQTLSIHGTGNFLSWHRYYTWVFERALQEECGYNGTQPYWDWGRWADDPENSPIFDGSDTSLSGNGEYIEHRASGFIPAGNGGGCVKSGPFKDMVVHLGPVAPAIDPAPPANPRRDGYGDNPRCLRRDISNQLSSKYARTQDIVDLITTSADIGTFQTVMQGAGGFGVGPGGMGVHAAGHFTIAGDPGGDFYTSPNDPAFWVHHGMIDRTWTIWQSQDLDNRLQVIAGGSSMMGGPPQTLDDPVDLGVVADKVYPIRDLVSVVDGPFCYVYE
Molecule B1 showed a pHopt in data set [1] (3-methoxycatechol oxidation, room temperature, 10 μM CuSO4, Carmody buffers pH3-9) of 7.0. For the same molecule, in data set [1] (>50% of maximum activity), the T range is 30-60 °C and the pH range is reported as 5.0-7.5. The “[CuSO4] range” value in data set [1] (>90% of maximum activity) is 20 to 1000 µM. In addition, in data set [1] (A400 after 1 h incubation, 20 to 70° C., 50 mM Bis-Tris pH 7.0, 20 or 50 μM copper), the Topt turned out to be 55 °C. In addition, the “[CuSO4]opt” value in data set [1] (at optimal pH, 50 mM Bis-Tris buffer pH 7.0, CuSO4 varied 1-1000 μM) was found to be 200 µM. Moreover, in data set [2], the “Conversion of substrates (absorbance at 400 nm)” value was “only able to use syringic acid as a substrate”.

The values are drawn from patent US20190002846A1, “POLYPEPTIDES HAVING DEMETHYLATING ACTIVITY” (Genencor International B.V., priority 2015, published 2019).
